The source of these data is IntAct's records for PubMed 18835279.

B1: Tax1-binding protein 3 (Mus musculus), Q9DBG9 (parent)
chain: MSYTPGQPVTAVVQRVEIHKLRQGENLILGFSIGGGIDQDPSQNPFSEDKTDKGIYVTRVSEGGPAEIAGLQIGDKIMQVNGWDMTMVTHDQARKRLTKRSEEVVRLLVTRQSLQKAVQQSMLS

In one experiment the parent is B1. As to conditions: with ctnb1_human CTNNB1, P35222.
Sequence of ctnb1_human CTNNB1, P35222 (P35222 whole entry): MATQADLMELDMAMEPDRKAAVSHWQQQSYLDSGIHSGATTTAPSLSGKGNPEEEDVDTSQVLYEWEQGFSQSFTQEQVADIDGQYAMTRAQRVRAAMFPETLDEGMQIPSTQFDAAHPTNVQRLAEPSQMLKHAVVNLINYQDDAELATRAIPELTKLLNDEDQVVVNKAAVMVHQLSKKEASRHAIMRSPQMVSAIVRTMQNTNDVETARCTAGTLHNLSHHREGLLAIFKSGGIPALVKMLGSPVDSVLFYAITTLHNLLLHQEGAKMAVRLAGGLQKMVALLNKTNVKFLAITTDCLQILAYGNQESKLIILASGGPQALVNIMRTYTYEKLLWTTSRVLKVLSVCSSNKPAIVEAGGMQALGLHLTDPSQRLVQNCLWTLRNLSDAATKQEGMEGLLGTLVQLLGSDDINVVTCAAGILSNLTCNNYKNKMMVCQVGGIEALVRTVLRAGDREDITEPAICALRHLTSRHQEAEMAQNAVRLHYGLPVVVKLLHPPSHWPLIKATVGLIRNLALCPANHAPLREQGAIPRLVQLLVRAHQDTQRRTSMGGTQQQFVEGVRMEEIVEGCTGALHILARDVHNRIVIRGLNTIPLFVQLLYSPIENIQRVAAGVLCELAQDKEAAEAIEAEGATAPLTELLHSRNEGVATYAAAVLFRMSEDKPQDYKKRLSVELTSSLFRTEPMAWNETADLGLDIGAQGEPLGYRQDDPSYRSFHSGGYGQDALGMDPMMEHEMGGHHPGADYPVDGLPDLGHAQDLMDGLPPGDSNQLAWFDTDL
Regarding MSYTPGQPVTAVVQRVEIHKLRQGENLILGFSIGGGIDQDPSQNAFSEDKTDKGIYVTRVSEGGPAEIAGLQIGDKIMQVNGWDMTMVTHDQARKRLTKRSEEVVRLLVTRQSLQKAVQQSMLS, the “effect of a mutation on the interaction” value was “decreasing interaction”.
With MSYTPGQPVTAVVQRVEIHKLRQGENLILGFSIGGGIDQDPSQNSFSEDKTDKGIYVTRVSEGGPAEIAGLQIGDKIMQVNGWDMTMVTHDQARKRLTKRSEEVVRLLVTRQSLQKAVQQSMLS, the “effect of a mutation on the interaction” value is recorded as “decreasing interaction”.

In a further experiment the parent is B1. The note with it: with ctnb1_human CTNNB1, P35222. This is another data set of the same source.
In the case of MSYTPGQPVTAVVQRVEIHKLRQGENLILGFSIGGGIDQDPSQNAFSEDKTDKGIYVTRVSEGGPAEIAGLQIGDKIMQVNGWDMTMVTHDQARKRLTKRSEEVVRLLVTRQSLQKAVQQSMLS, the “effect of a mutation on the interaction” value is “increasing interaction”.
